Test results as given in the supplement of paper PMC12783771.
± gives the standard deviation of the averaged measurements.

B1: library; numbered along this chain (parent)
chain: MNIQIGELAKRTACPVVTIRFYEQEGLLPPPGRSRGNFRLYGEEHVERLQFIRHCRSLDMPLSDVRTLLSYRKRPDQDCGEVNMLLDEHIRQVESRIGALLELKHHLVELREACSGARPAQSCGILQGLSDCVCDTRGTTAHPSD

Key:
[1] = variants of: B1; experiment: sfGFP reporter fluorescence (15 h) (µM FITC); higher = higher leak; settings: library round: Round 1; ligand: none
Protocol: (§1)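 Cell-free biosensing: 1 µL Echo-assembled CFE reactions with linear PbrR variant templates (5 nM) and pPbrR-sfGFP reporter, with 1 µM Pb, 30 µM Zn or no ligand; endpoint sfGFP fluorescence after 15 h at 30 °C calibrated as µM FITC. Round 1 ML-predicted PbrR mutants; 3 biological replicates.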

[2] = variants of: B1; experiment: sfGFP reporter fluorescence (15 h) (µM FITC); higher = stronger transcriptional activation; settings: library round: Round 1
Protocol: as §1

| Variant | sfGFP reporter fluorescence [1] | sfGFP reporter fluorescence ([2]; ligand: 1 µM Pb) | sfGFP reporter fluorescence ([2]; ligand: 30 µM Zn) |
| --- | --- | --- | --- |
| D64K N83F | 0.0616 ± 0.0024 | 0.198 ± 0.035 | 0.143 ± 0.01 |
| D64K N83T | 0.0636 ± 0.0021 | 0.186 ± 0.009 | 0.695 ± 0.022 |
| D64K C79L | 0.0594 ± 0.00097 | 0.05925 ± 0.00021 | 0.0572 ± 0.00064 |
| C55L K104V | 0.0651 ± 0.0015 | 0.0729 ± 0.004 | 0.121 ± 0.0031 |
| V16C K104V | 0.0623 ± 0.0024 | 0.0778 ± 0.0038 | 0.0911 ± 0.012 |
| N83F P143K | 0.0612 ± 0.00097 | 0.0718 ± 0.0033 | 0.0627 ± 0.00097 |
| M60L D64K P143A | 0.3527 ± 0.0018 | 0.945 ± 0.11 | 2.4 ± 0.12 |
| P61N L68F I90T | 0.0702 ± 0.0011 | 0.0958 ± 0.017 | 0.435 ± 0.044 |
| P61D D64K E112H | 0.156 ± 0.0048 | 0.345 ± 0.087 | 1.36 ± 0.14 |
| P30V K104V | 0.0683 ± 0.002 | 0.117 ± 0.0083 | 0.641 ± 0.092 |
| N83I I97H | 0.0618 ± 0.0012 | 0.0654 ± 0.0032 | 0.0625 ± 0.003 |
| N83M D135A | 0.0564 ± 0.0017 | 0.102 ± 0.0031 | 0.07 ± 0.0044 |
| P61N D135R | 0.0732 ± 0.00085 | 0.164 ± 0.0087 | 0.708 ± 0.075 |
| P61N D135A | 0.0764 ± 0.0016 | 0.152 ± 0.014 | 0.791 ± 0.096 |
| P61L K104V | 0.0638 ± 0.00097 | 0.0617 ± 0.005 | 0.0765 ± 0.0044 |
| P61N L62I | 0.0668 ± 0.0015 | 0.0856 ± 0.0013 | 0.379 ± 0.015 |
| M60L P61N D64K K104T | 0.137 ± 0.0056 | 0.446 ± 0.019 | 1.18 ± 0.11 |
| P61N D64K D135A | 0.123 ± 0.0068 | 0.376 ± 0.011 | 1.33 ± 0.12 |
| M60L P61L | 0.0689 ± 0.00037 | 0.081 ± 0.0019 | 0.156 ± 0.015 |
| M60L D64T L107C | 0.71 ± 0.032 | 0.754 ± 0.061 | 2.46 ± 0.078 |
| M60L D131C | 0.0866 ± 0.0039 | 0.248 ± 0.025 | 0.694 ± 0.081 |
| I3M D131C | 0.066 ± 0.0019 | 0.102 ± 0.016 | 0.446 ± 0.039 |

| Variant | sfGFP reporter fluorescence [1] | sfGFP reporter fluorescence ([2]; ligand: 1 µM Pb) | sfGFP reporter fluorescence ([2]; ligand: 30 µM Zn) |
| --- | --- | --- | --- |
| G36F M60L P61N | 0.0662 ± 0.0022 | 0.0735 ± 0.0027 | 0.143 ± 0.007 |
| G32A D131C | 0.0613 ± 0.0022 | 0.0707 ± 0.0055 | 0.147 ± 0.0097 |
| N83S R111C | 0.06169 ± 0.00056 | 0.0672 ± 0.002 | 0.0665 ± 0.0011 |
| N83S R111D | 0.0636 ± 0.0039 | 0.0665 ± 0.0026 | 0.0759 ± 0.00097 |
| L62I R111L | 0.0639 ± 0.002 | 0.0671 ± 0.0036 | 0.143 ± 0.0089 |
| R33C K104V | 0.06255 ± 0.00056 | 0.0618 ± 0.0011 | 0.0646 ± 0.0015 |
| P61N C134V | 0.095 ± 0.0057 | 0.189 ± 0.051 | 1.26 ± 0.21 |
| P61N C134M | 0.102 ± 0.0054 | 0.233 ± 0.0043 | 1.53 ± 0.14 |
| N83T D131A P143L | 0.0646 ± 0.0011 | 0.0895 ± 0.002 | 0.161 ± 0.012 |
| N83T D131A P143I | 0.0661 ± 0.0015 | 0.088 ± 0.0036 | 0.158 ± 0.014 |
| N83S V108N | 0.0632 ± 0.0015 | 0.0665 ± 0.0043 | 0.146 ± 0.0045 |
| D64A C134M | 0.135 ± 0.0022 | 0.233 ± 0.0049 | 1.77 ± 0.21 |
| V16S P61N | 0.074 ± 0.00097 | 0.114 ± 0.021 | 0.612 ± 0.11 |
| N83I D131S | 0.063 ± 0.0013 | 0.0862 ± 0.0031 | 0.0633 ± 0.0013 |
| E81Q | 0.0605 ± 0.0017 | 0.0673 ± 0.0016 | 0.189 ± 0.022 |
| M60L P61N D64K D131C | 0.194 ± 0.0087 | 0.7 ± 0.062 | 1.15 ± 0.26 |
| L62I K104V | 0.072 ± 0.0011 | 0.109 ± 0.0031 | 0.417 ± 0.022 |
| M60L D64K D135S | 0.29 ± 0.02 | 0.662 ± 0.097 | 1.93 ± 0.17 |
| P61D D64K D135A | 0.15 ± 0.0062 | 0.321 ± 0.036 | 1.12 ± 0.11 |
| P61N V108M | 0.07 ± 0.0013 | 0.122 ± 0.0096 | 0.698 ± 0.094 |
| L28V C134T | 0.06536 ± 0.00042 | 0.0943 ± 0.0028 | 0.646 ± 0.022 |
| M60L P61N D64K K104V L107E G128I | 0.0622 ± 0.0024 | 0.0589 ± 0.0018 | 0.0596 ± 0.0016 |

| Variant | sfGFP reporter fluorescence [1] | sfGFP reporter fluorescence ([2]; ligand: 1 µM Pb) | sfGFP reporter fluorescence ([2]; ligand: 30 µM Zn) |
| --- | --- | --- | --- |
| C55V K104V | 0.0621 ± 0.00092 | 0.0644 ± 0.0017 | 0.107 ± 0.0044 |
| P61D D64K L107C | 1.58 ± 0.082 | 1.54 ± 0.35 | 2.2 ± 0.1 |
| V46F K104V | 0.0666 ± 0.0012 | 0.103 ± 0.0038 | 0.475 ± 0.047 |
| P61N D131C | 0.108 ± 0.0091 | 0.428 ± 0.043 | 1.59 ± 0.16 |
| P61N D131Y | 0.0734 ± 0.00076 | 0.115 ± 0.0094 | 0.59 ± 0.078 |
| D64K R111L | 0.06487 ± 0.00064 | 0.154 ± 0.013 | 0.898 ± 0.071 |
| D64K R111A | 0.112 ± 0.0044 | 0.382 ± 0.052 | 1.83 ± 0.27 |
| D64K R111D | 0.0666 ± 0.00092 | 0.164 ± 0.011 | 0.682 ± 0.097 |
| E43Y P61N | 0.0713 ± 0.0038 | 0.139 ± 0.0038 | 0.822 ± 0.12 |
| P61N V108M R111C | 0.0735 ± 0.00085 | 0.0925 ± 0.013 | 0.237 ± 0.0083 |
| D64T K104T | 0.207 ± 0.0096 | 0.472 ± 0.087 | 1.83 ± 0.16 |
| N83R D135A | 0.0635 ± 0.0017 | 0.0787 ± 0.005 | 0.0875 ± 0.0015 |
| D64A E94R | 0.0816 ± 0.0051 | 0.179 ± 0.013 | 1.44 ± 0.18 |
| D64K V108E | 0.0746 ± 0.0013 | 0.165 ± 0.015 | 1.42 ± 0.1 |
| N83I K104V | 0.0628 ± 0.0011 | 0.356 ± 0.026 | 0.0679 ± 0.0048 |
| V82I E112I D131C | 0.0625 ± 0.0026 | 0.0635 ± 0.0028 | 0.0669 ± 0.0057 |
| M60L D64K E81A R111A | 0.488 ± 0.013 | 1.37 ± 0.17 | 2.16 ± 0.59 |
| N83S I90L R111L | 0.063 ± 0.0026 | 0.079 ± 0.0099 | 0.205 ± 0.021 |
| V16N L58A | 0.0597 ± 0.0018 | 0.0608 ± 0.00073 | 0.0591 ± 0.0024 |
| L58F K104V | 0.0645 ± 0.00097 | 0.0808 ± 0.00092 | 0.182 ± 0.024 |
| D64A I97M | 0.0644 ± 0.002 | 0.0781 ± 0.0023 | 0.507 ± 0.02 |
| P61N D64K V108H | 0.139 ± 0.0027 | 0.462 ± 0.044 | 1.48 ± 0.026 |

| Variant | sfGFP reporter fluorescence [1] | sfGFP reporter fluorescence ([2]; ligand: 1 µM Pb) | sfGFP reporter fluorescence ([2]; ligand: 30 µM Zn) |
| --- | --- | --- | --- |
| P61N K104V L107E | 0.0663 ± 0.0026 | 0.0646 ± 0.0037 | 0.06805 ± 0.00056 |
| C55L M60L P61N D64K | 0.071 ± 0.0012 | 0.0878 ± 0.0025 | 0.382 ± 0.0068 |
| D64A R111L | 0.061 ± 0.0013 | 0.105 ± 0.01 | 0.743 ± 0.022 |
| V16T K104V | 0.0693 ± 0.0019 | 0.105 ± 0.0073 | 0.497 ± 0.034 |
| N83S D135P | 0.0623 ± 0.00073 | 0.0811 ± 0.0058 | 0.145 ± 0.004 |
| N83S D135A | 0.0628 ± 0.0014 | 0.0731 ± 0.0064 | 0.219 ± 0.026 |
| N83T D131A | 0.0649 ± 0.0029 | 0.0917 ± 0.0025 | 0.169 ± 0.016 |
| M60L D64K G128T D131C | 0.754 ± 0.023 | 1.8 ± 0.19 | 2.25 ± 0.44 |
| M60L D64K K104T | 0.5087 ± 0.0029 | 1.14 ± 0.23 | 2.22 ± 0.29 |
| M60L D64K K104V D131C | 0.504 ± 0.028 | 1.29 ± 0.22 | 1.91 ± 0.2 |
| N83T C123L | 0.0594 ± 0.0013 | 0.0586 ± 0.0016 | 0.059 ± 0.0017 |
| D64K N83S I90N | 0.0679 ± 0.0014 | 0.223 ± 0.065 | 0.737 ± 0.02 |
| R33A G36L | 0.0634 ± 0.0035 | 0.0567 ± 0.0051 | 0.0604 ± 0.00092 |
| P61N D64K N83T | 0.0684 ± 0.00076 | 0.232 ± 0.045 | 0.635 ± 0.034 |
| D64T Q127G | 0.0611 ± 0.004 | 0.0887 ± 0.0049 | 0.594 ± 0.062 |
| P61N R111L | 0.0644 ± 0.0014 | 0.0861 ± 0.0066 | 0.265 ± 0.025 |
| M60L D64K G128T D135A | 0.874 ± 0.016 | 1.32 ± 0.071 | 2.33 ± 0.27 |
| D64T L107C | 2.07 ± 0.33 | 2.22 ± 0.12 | 2.63 ± 0.3 |
| D64K N83T R111L | 0.0651 ± 0.0024 | 0.125 ± 0.0074 | 0.532 ± 0.049 |
| P15A P61N | 0.0831 ± 0.0029 | 0.12 ± 0.017 | 0.573 ± 0.031 |
| P15A P61L | 0.0735 ± 0.0017 | 0.0722 ± 0.0038 | 0.0794 ± 0.002 |
| M60L D64K R111L | 0.205 ± 0.0039 | 0.676 ± 0.1 | 1.99 ± 0.49 |
